We go through one substance from patent US20230348572A1.

The assay concerns the target RBD (amino acids 340-538 NITN.GPKK) expressed on the surface of MDCK-SIAT1 cells (SARS-CoV-2) (UniProt P0DTC2).

The term IC50 denotes the concentration at which inhibition is half-maximal. The substance H11-D4-Fc (Fc fusion) displayed an IC50 of 0.028 µM.
